Bounds are passed on as bounds.

One assay addresses human GATA2 (human) (UniProt P23769). Kind of assay: cell-based or functional assay.
In the next assay the target is human TFII-I (human) (UniProt P78347). Briefly: cell-based or functional assay.
Chain of human TFII-I (human) (P78347 2-998 limits assumed): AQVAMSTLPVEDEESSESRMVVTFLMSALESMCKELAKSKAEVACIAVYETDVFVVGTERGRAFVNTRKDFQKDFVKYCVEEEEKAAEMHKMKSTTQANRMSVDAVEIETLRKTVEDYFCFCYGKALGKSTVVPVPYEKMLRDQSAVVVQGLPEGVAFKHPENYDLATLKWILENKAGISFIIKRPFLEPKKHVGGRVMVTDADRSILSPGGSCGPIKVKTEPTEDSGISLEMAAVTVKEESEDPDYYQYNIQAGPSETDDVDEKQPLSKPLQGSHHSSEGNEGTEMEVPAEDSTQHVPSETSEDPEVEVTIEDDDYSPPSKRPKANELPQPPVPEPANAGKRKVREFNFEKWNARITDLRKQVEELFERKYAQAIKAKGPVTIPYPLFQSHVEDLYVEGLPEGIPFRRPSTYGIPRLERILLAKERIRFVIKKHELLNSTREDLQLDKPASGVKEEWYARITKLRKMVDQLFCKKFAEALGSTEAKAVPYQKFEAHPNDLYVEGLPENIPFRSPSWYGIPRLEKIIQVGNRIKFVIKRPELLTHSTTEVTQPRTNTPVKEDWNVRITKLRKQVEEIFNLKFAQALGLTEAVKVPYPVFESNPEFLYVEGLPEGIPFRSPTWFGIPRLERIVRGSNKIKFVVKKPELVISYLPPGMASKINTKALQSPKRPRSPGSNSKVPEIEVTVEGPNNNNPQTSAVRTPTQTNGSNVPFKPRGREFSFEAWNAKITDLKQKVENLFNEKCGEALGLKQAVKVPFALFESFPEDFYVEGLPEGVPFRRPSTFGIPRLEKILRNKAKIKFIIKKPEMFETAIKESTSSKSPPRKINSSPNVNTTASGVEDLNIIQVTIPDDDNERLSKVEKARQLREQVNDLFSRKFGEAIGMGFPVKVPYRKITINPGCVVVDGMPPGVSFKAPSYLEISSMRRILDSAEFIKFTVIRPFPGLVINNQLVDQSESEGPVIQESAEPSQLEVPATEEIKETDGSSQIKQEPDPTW

Chain of human GATA2 (human) (P23769 whole entry): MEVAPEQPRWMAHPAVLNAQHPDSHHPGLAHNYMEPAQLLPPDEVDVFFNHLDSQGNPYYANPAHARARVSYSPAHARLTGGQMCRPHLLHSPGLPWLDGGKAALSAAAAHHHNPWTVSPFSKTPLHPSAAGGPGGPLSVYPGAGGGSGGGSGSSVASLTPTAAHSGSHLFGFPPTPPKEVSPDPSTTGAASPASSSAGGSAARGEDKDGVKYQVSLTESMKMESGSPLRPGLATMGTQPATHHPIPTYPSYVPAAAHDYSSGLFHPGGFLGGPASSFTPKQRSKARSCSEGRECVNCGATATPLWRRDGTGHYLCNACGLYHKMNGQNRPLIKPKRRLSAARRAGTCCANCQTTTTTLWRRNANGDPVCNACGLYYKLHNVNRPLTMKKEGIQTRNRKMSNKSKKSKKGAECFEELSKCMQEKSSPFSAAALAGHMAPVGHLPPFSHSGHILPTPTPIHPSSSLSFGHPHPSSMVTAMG

B1: human p190RhoGAP (protein)
chain: MMMARKQDVRIPTYNISVVGLSGTEKEKGQCGIGKSCLCNRFVRPSADEFHLDHTSVLSTSDFGGRVVNNDHFLYWGEVSRSLEDCVECKMHIVEQTEFIDDQTFQPHRSTALQPYIKRAAATKLASAEKLMYFCTDQLGLEQDFEQKQMPDGKLLVDGFLLGIDVSRGMNRNFDDQLKFVSNLYNQLAKTKKPIVVVLTKCDEGVERYIRDAHTFALSKKNLQVVETSARSNVNVDLAFSTLVQLIDKSRGKTKIIPYFEALKQQSQQIATAKDKYEWLVSRIVKNHNENWLSVSRKMQASPEYQDYVYLEGTQKAKKLFLQHIHRLKHEHIERRRKLYLAALPLAFEALIPNLDEIDHLSCIKAKKLLETKPEFLKWFVVLEETPWDATSHIDNMENERIPFDLMDTVPAEQLYEAHLEKLRNERKRVEMRRAFKENLETSPFITPGKPWEEARSFIMNEDFYQWLEESVYMDIYGKHQKQIIDKAKEEFQELLLEYSELFYELELDAKPSKEKMGVIQDVLGEEQRFKALQKLQAERDALILKHIHFVYHPTKETCPSCPACVDAKIEHLISSRFIRPSDRNQKNSLSDPNIDRINLVILGKDGLARELANEIRALCTNDDKYVIDGKMYELSLRPIEGNVRLPVNSFQTPTFQPHGCLCLYNSKESLSYVVESIEKSRESTLGRRDNHLVHLPLTLILVNKRGDTSGETLHSLIQQGQQIASKLQCVFLDPASAGIGYGRNINEKQISQVLKGLLDSKRNLNLVSSTASIKDLADVDLRIVMCLMCGDPFSADDILFPVLQSQTCKSSHCGSNNSVLLELPIGLHKKRIELSVLSYHSSFSIRKSRLVHGYIVFYSAKRKASLAMLRAFLCEVQDIIPIQLVALTDGAVDVLDNDLSREQLTEGEEIAQEIDGRFTSIPCSQPQHKLEIFHPFFKDVVEKKNIIEATHMYDNAAEACSTTEEVFNSPRAGSPLCNSNLQDSEEDIEPSYSLFREDTSLPSLSKDHSKLSMELEGNDGLSFIMSNFESKLNNKVPPPVKPKPPVHFEITKGDLSYLDQGHRDGQRKSVSSSPWLPQDGFDPSDYAEPMDAVVKPRNEEENIYSVPHDSTQGKIITIRNINKAQSNGSGNGSDSEMDTSSLERGRKVSIVSKPVLYRTRCTRLGRFASYRTSFSVGSDDELGPIRKKEEDQASQGYKGDNAVIPYETDEDPRRRNILRSLRRNTKKPKPKPRPSITKATWESNYFGVPLTTVVTPEKPIPIFIERCIEYIEATGLSTEGIYRVSGNKSEMESLQRQFDQDHNLDLAEKDFTVNTVAGAMKSFFSELPDPLVPYNMQIDLVEAHKINDREQKLHALKEVLKKFPKENHEVFKYVISHLNKVSHNNKVNLMTSENLSICFWPTLMRPDFSTMDALTATRTYQTIIELFIQQCPFFFYNRPITEPPGARPSSPSAVASTVPFLTSTPVTSQPSPPQSPPPTPQSPMQPLLPSQLQAEHTL
B1 had a GATA2 levels in the nucleus of p190RhoGAP knockdown cells relative to control cells (immunoblotting, fluorescence microscopy) with human GATA2 (human) of over 10 fold. This molecule also displayed a TFII-I protein levels in the nuclear fraction of p190RhoGAP knockdown HMVE cells (immunoblot, fluorescence microscopy) in the assay with human TFII-I (human) of 1.5 fold.

These data come from patent US20110135632A1.
